According to patent US20170129940A1 (INSTITUTE FOR RESEARCH IN BIOMEDICINE, published 2017):

Tests used:
Experiment in all cases: cell-based or functional assay
[1] = target: T1, hCMV UL130 + UL131A (co-expressed in HEK293T cells) (human cytomegalovirus, UniProt P16772 1-214; F5HET4 19-129)
[2] = target: T1, hCMV UL130 + UL131A (co-expressed in …); remark: listed apart in the source
[3] = target: T2, hCMV UL128 + UL130 + UL131A (co-expressed in HEK293T cells) (human cytomegalovirus, UniProt P16837 28-171; P16772 1-214; F5HET4 19-129)
[4] = target: T2, hCMV UL128 + UL130 + UL131A …; remark: listed apart in the source
[5] = target: T3, hCMV gH (expressed in HEK293T cells) (human cytomegalovirus, UniProt P12824 24-743)
[6] = target: T3, hCMV gH (expressed in HEK293T cells); remark: listed apart in the source

T2 sequence (P16837 28-171 limits assumed, one chain of several): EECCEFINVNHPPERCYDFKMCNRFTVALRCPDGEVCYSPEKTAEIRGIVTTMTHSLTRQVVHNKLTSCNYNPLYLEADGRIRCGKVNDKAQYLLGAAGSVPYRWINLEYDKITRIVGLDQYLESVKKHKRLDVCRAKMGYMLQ

Binder | 50% Neutralization ARPE [1] [µg/mL] | 50% Neutralization MRC-9 [1] [µg/mL] | 90% Neutralization ARPE [2] [µg/mL] | 90% Neutralization MRC-9 [2] [µg/mL] | 50% Neutralization ARPE [3] [µg/mL] | 50% Neutralization MRC-9 [3] [µg/mL] | 90% Neutralization ARPE [4] [µg/mL] | 90% Neutralization MRC-9 [4] [µg/mL] | also measured
4I22 (antibody, V domains shown) VH: QVQLVESGGGVVQPGRSLRLSCVASGFTFSSYAMHWVRQAPGKGLEWVAVISYDGDNKFYADSVKGRFRISRDTSKNTLYLEMNSLRAADTAIYYCAREELVGLMPPYYNYGLDVWGQGTTVTVSS VL: QSVLTQPPSVSAAPGQKVTISCSGSNSNIGNNYVSWYQQLPGRAPKLLIYDNDHRPSGIPDRFSGSKSGTSATLVITGLQTGDEADYYCETWDTSLSAAVVFGGGTKLTVL | < 0.01 | > 2 | 0.0015 | > 10 |  |  |  |  | 
8L13 (antibody, V domains shown) VH: QVQLLESGGGVVQPGRSLRLSCAASGFTFSNYGMHWVRQAPGKGLEWVAVIWNDGSKKYYAESVKGRFTISRDNSKNTVYLQMNSLRAEDTAVYYCARDEGVQMVFAMPDYGMDVWGQGTTVTVSS VL: SYELTQPPSVSVSPGQTASITCSGDKLGDKFACWYQQRPGQSPILVIYQDSKRPSGIPERFSGSNSGNTATLTIRGTQAMDEADYYCQAWDSSTAHYVFGTGTKVTVL | < 0.01 | > 2 | 0.001 | > 10 |  |  |  |  | 
2C12 (antibody, V domains shown) VH: QITLRESGPTLVKPTQTLTLTCTFSGFSLNTNGVGVGWIRQPPGKALEWLALIYWNGNEGYSPSLKSRLTITKDTSKNQVVLTMTNMDPVDTATYYCVHWPQGLTTVTRLAFDIWGQGTMVTVSS VL: QSALTQPRSVSGSPGQSVTISCTGTTSDVGRYNFVSWYQQHPGKAPKLLMYDVSQRPSGVPSRFSGSKSGNTASLTISGLQAEDEAVFYCCSYAGGNFFSYVFGTGTKVTVL |  |  |  |  | < 0.01 | ≤ 2 | 0.006 | > 10 | 
7B13 (antibody, V domains shown) VH: QVQLVESGGGVVQPGGSLRLSCAASGFSFSNYGMHWVRQAPGKGLEWVALIPSDGNYQYYTDSVKGRFTVSRDNSRNTLYLQMKSLRAEDTARYHCAHLGGGLFDFWGQGTLVTVSS VL: QSALNQPRSVSGSPGQSVSISCTGSSSDVGGYEFVSWYQHHPGKAPKLIIYDVDKRPSGVPDRFSGSRSGDTASLTISGLQAEDEADYYCYSSADTWVFGGGTKLTVL |  |  |  |  | < 0.001 | > 2 | 0.003 | > 10 | 
7I13 (antibody, V domains shown) VH: QVQLVESGGGVVQPGRSLRLSCAASGFTFSNYGMHWVRQGPGKGLEWVAVISYDASSKYYTDSVQGRFTISRDNSKNTLFLQMNSLRGEDTAVYYCAKALRYLDWFLSDPFDYWGQGTLVTVSS VL: EIVLTQSPGTLSLSPGERATLSCRASQSVSSDFLAWYQQKPGQAPRLLIYGASSRATGIPDRFSGSGSGTDFTLTISRLEPEDFAVYYCQQYAASPPFGQGTRLEIK |  |  |  |  | < 0.01 | > 2 | 0.008 | > 10 | 
8C15 (antibody, V domains shown) VH: QVQLQESGPGLVKPSETLSLTCTVSGGSIRSYYWSWIRQPPGKGLEWIGHIYYSGNTNYSPSLQSRVTISLDTPKNQFSLRLSSVTAADTAVYYCARHDVIVVRGVFDVWGQGTVVTVSS VL: QSALTQPASVSGSPGQSITISCTGTSSDIGTYNLVSWYQQHPGKAPKVLIYDGSKRPSGVSSRFSASKSGNTASLTISGLQAEDETDYYCCSYAGTSDFFVVFGGGTKLTVL |  |  |  |  | < 0.001 | > 2 | 0.0025 | > 10 | 
8J16 (antibody, V domains shown) VH: QVQLQESGPGLVKPSETLSLTCSVSGGFTSSYYWSWIRQAPGKGLEWIGYVYYGESTDYNPSLKSRATISIDTSKNQFSLKLSSVTAADTAVYYCAREVDKRGFDYWGQGALVTVSS VL: EIVLTQSPGTLSLSPGERATLSCRASQSVSGGYLAWYQQEPGQAPRLVIYGASSRATGIPDRFSASGSGTDFTLTITRLEPEDFAVYYCQQYGRTPLTFGGGTKVEIK |  |  |  |  | < 0.001 | > 2 | 0.0008 | > 10 | 
9I6 (antibody, V domains shown) VH: EVQLVQSGAEVKKPGESLKISCRESGDTFPAYWIAWVRQMPGKGLEWMGIIYPIDSETTYSPSFQGQVTISADKSINTAYLQWSSLKASDSAIYYCARGTSTGLREAFHIWGQGTMVTVSS VL: DVVMTQSPLSLAVTLGQPAYISCRSSQSLGYSDGNTYLNWFQQRPGQSPRRLIYEVSNRDSGVPDRFSGSGSGTDFTLKISRVEAEDVGTYYCMQGTHWPPMCSFGQGTKLEIK |  |  |  |  | < 0.001 | > 2 | 0.0007 | > 10 | 
11B12 (antibody, V domains shown) VH: QMQLVQSGPQVKKPGTSVKVSCKASGFTFTSSAMQWVRQARGQRPEWIGWIVLGSGNTNYAQKFQERVTLTRDMSTATAYMELSSLRSEDTAVYYCAADRGRGGYNVYTYWGQGTLVAVSS VL: EIVMTQSPGTLSLSPGERATLSCRASQTISNTYVAWYQQKPGQAPRLLIYGASSRATGIPDRFSGSGSGTDFTLTIRRLEPEDFAVYYCQQNGQSPWTFGQGTNVEIK |  |  |  |  |  |  |  |  | 50% Neutralization ARPE [5]: ≤ 2 µg/mL; 50% Neutralization MRC-9 [5]: ≤ 2 µg/mL; 90% Neutralization ARPE [6]: 1.2 µg/mL; 90% Neutralization MRC-9 [6]: 3.5 µg/mL
13H11 (antibody, V domains shown) VH: QVQLVQSGAEVKKPGASVKVSCKASGYTFTNYYIHWVRQAPGQGLEWMGIIHPSSGGTSYAQKFQGRVTMTRDTSTSTVSMDLSSLRSEDTAVYYCGRAFRILGLSDVFVNDWGQGTVVTVSS VL: DIQMTQSPSSLSASVGDRVTITCRASQGINNYLAWYQQKPGKVPKLLIYAASTLQSGVPSRFSGSGSGTAFTLTILSLQPEDVATYYCQKYNSAPFTFGPGTKVDIK |  |  |  |  |  |  |  |  | 50% Neutralization ARPE [5]: < 0.01 µg/mL; 50% Neutralization MRC-9 [5]: ≤ 2 µg/mL; 90% Neutralization ARPE [6]: 0.4 µg/mL; 90% Neutralization MRC-9 [6]: 1.12 µg/mL
4N10 (antibody, V domains shown) VH: QVQLVQSGAEVKKPGSSVRVSCKASGGTFSSYVIIWVRQAPGQGLEWMGGVIPIFDTVNYAQKFQGRVTITADESTSTAYMELSSLKSEDTAVYYCARGILAYCGGDCYNTPYGMDVWGQGTTVTVSS VL: DIQMTQSPSILSASVGDRVTITCRASQSISSWLAWYQQKPGKAPKLLIYKASSLEIGVPSRISGSGSGTEFTLTISSLQPDDFATYYCQQYNSSWTFGQGTKVEIK | < 0.001 | ≤ 2 | 0.02 | > 10 |  |  |  |  | 
10F7 (antibody, V domains shown) VH: EVQLVESGGGLVQPGRSLRLSCTASGFTFGDYAMSWFRQAPGKGLEWVGFIRSKAYGGTTEYAASVKGRFTISRDDSKSIAYLQMNSLKTEDTAVYYCTRASSLLWLLNPQPNFDYWGQGTLVTVSS VL: SYVLTQPPSVSVAPGQTARITCGGNNIGSNNVHWYQQKPGQAPVLVVYDDSDRPSGIPERFSGSNSGNTATLTISRVEAGDEADYYCQVWDSSSDHPVFGGGTKLTVL | < 0.01 | ≤ 2 | 0.002 | > 10 |  |  |  |  | 
10P3 (antibody, V domains shown) VH: EVQLVESGGGLVRPGGSLRLSCAASGFTFHNYRMNWVRQAPGKGLEWVANIKQDGSEKSYVDSVRGRFTTSRDNSKNSLYLQINSLRAEDTAVYYCARGEGYTYGVVYSYSAMDVWGQGTTVIVSS VL: SYELTQPPSVSVSPGQTARITCSGNVLPNQYASWYQQKPGQAPVLVIYKDTERPSGIPGRFSGSSSGTTVTLTISGVQAEDEADYYCQSADSSGADYVFGTGTKVTVL | < 0.001 | > 2 | 0.0025 | > 10 |  |  |  |  | 
